US12723255B2, “Herbicide tolerance genes and methods of use thereof” (priority 2014, dated 2026)

B1: MON-HT5: engineered oxygenase protein, amino acid sequence SEQ ID NO:28 (protein)
chain: MHAALTPLTNKYRFIDVQPLTGVLGAEITGVDLREPLDDSTWNEILDAFHTYQVIYFPGQAITNEQHIAFSRRFGPVDPVPLLKSIEGYPEVQMIRREANESGRVIGDDWHTDSTFLDAPPAAVVMRAIEVPEYGGDTGFLSMYSAWETLSPTMQATIEGLNVVHSATKVFGSLYQATNWRFSNTSVKVMDVDAGDRETVHPLVVTHPVTGRRALYCNQVYCQKIQGMTDAESKSLLQFLYEHATKFDFTCRVRWKKDQVLVWDNLCTMHRAVPDYAGKFRYLTRTTVAGDKPSR
B2: MON-HT4: engineered oxygenase protein, amino acid sequence SEQ ID NO:25 (protein)
chain: MHAALTPLTNKYRFIDVQPLTGVLGAEITGVDLREPLDDSTWNEILDAFHTYQVIYFPGQAITNEQHIAFSRRFGPVDPVPLLKSIEGYPEVQMIRREANESGRVIGDDWHTDSTFLDAPPAAVVMYAREVPPYGGDTGFLSMYTAWETLSPTMQATIEGLNVVHSATRVFGSLYQAQNRRYSNTSVKVMDVDAGDRETVHPLVVSHPVTGRRALYCNQVYCQRIEGMTDAESKSLLQFLYEHATKFDFTCRVRWKKDQVLVWDNLCTMHRAVPDYAGKFRYLTRTTVAGDKPSR
B3: MON-HT6: engineered oxygenase protein, amino acid sequence SEQ ID NO:31 (protein)
chain: MHAALSPLSQKYRFIDVQPLTGVLGAEITGVTLREPLDDNTWNEILDAFHTYQVIYFPGQAITNEQHIAFSRRFGPVDPVPLLKSIEGYPEVQMIRREANESGRVIGDDWHTDSTFLDAPPAAVVMYAREVPPYGGDTGFLSMYSAWDTLSDTMKATIEGLNVVHSATRVFGSLYQAQNRRFSNTSVKVMDVDAGDRETVHPLVVSHPVTGRRALYCNQVYCQRIEGMTDAESKPLLQFLYEHATRFDFTCRVRWKKDQVLVWDNLCTMHRAVPDYAGKFRYLTRTTVAGDKPSR

Columns and labels:
F1 hybrid maize plants [1] = test: efficacy field trial for 2,4-D tolerance; assay type: in vivo; settings: scale 0 to 100, with CTP unless label says no CTP; for average injury rating, V4 Growth Stage, 2x 2,4-D / average injury rating, V8 Growth Stage, 2x 2,4-D: 2 lb ae/acre at VE-V2, V4, V8; for average injury rating, V4 Growth Stage, 4x 2,4-D / average injury rating, V8 Growth Stage, 4x 2,4-D: 4 lb ae/acre at VE-V2, V4, V8; for average injury rating, V4 Growth Stage, 8x 2,4-D / average injury rating, V8 Growth Stage, 8x 2,4-D: 8 lb ae/acre at VE-V2, V4, V8; for average injury rating, V4 Growth Stage, 16x 2,4-D / average injury rating, V8 Growth Stage, 16x 2,4-D: 16 lb ae/acre at VE-V2, V4, V8
In short: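 F1 hybrid maize carrying MON89034 crossed with MON-HT events, NK603×MON89034 hybrids as control, grown at two field locations. 2,4-D amine at 2, 4, 8 or 16 lb ac/acre plus 0.25% v/v NIS applied at VE-V2, V4 and V8; plots visually rated for injury after V4 and V8 applications.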

F1 hybrid maize plants [2] = test: efficacy field trial for quizalofop-P tolerance and clethodim sensitivity; assay type: in vivo; settings: scale 0 to 100; for average injury rating, V4 Growth Stage, 4x Quizalofop / average injury rating, V8 Growth Stage, 4x Quizalofop: 0.32 lb ai/acre at VE-V2, V4, V8; for average injury rating, V4 Growth Stage, 4x Quizalofop / average injury rating, V8 Growth Stage, 4x Quizalofop / average injury rating, V4 Growth Stage, 8x Quizalofop / average injury rating, V8 Growth Stage, 8x Quizalofop / average injury rating, V4 Growth Stage, 16x Quizalofop / average injury rating, V8 Growth Stage, 16x Quizalofop: with CTP unless label says no CTP; for average injury rating, V4 Growth Stage, 8x Quizalofop / average injury rating, V8 Growth Stage, 8x Quizalofop: 0.64 lb ai/acre at VE-V2, V4, V8; for average injury rating, V4 Growth Stage, 16x Quizalofop / average injury rating, V8 Growth Stage, 16x Quizalofop: 1.28 lb ai/acre at VE-V2, V4, V8; for average injury rating, V8 Growth Stage, 1x Clethodim: clethodim 0.25 lb ai/acre at V8, volunteer control
In short: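 F1 hybrids of MON89034 × R1 plants carrying MON-HT constructs, NK603×MON89034 control, at two sites. Quizalofop-P at 0.32, 0.64 or 1.28 lb ai/acre + 0.25% v/v NIS at VE-V2, V4 and V8; clethodim 0.25 lb ai/acre + NIS at V8. Injury rated visually 0–100 at 10-14 days after application.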

F1 hybrid maize plants [3] = test: efficacy field trial with segregating F1 hybrid plants; assay type: in vivo; settings: CTP A; for % Injury from V4 2,4-D / % Injury from V8 2,4-D: 2,4-D amine 2× at VE-V2 (plus quizalofop-P 0.5×), V4, V8; for % Injury from V4 Quizalofop / % Injury from V8 Quizalofop: quizalofop-P 2× at VE-V2, V4, V8
In short: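 Field plots of segregating F1 hybrids (LH244 transformants crossed with MON89034) received either quizalofop-P 0.16 lb ai/acre + 0.25% NIS at VE-V2, V4 and V8, or 2,4-D amine 2 lb ae/acre (+ quizalofop-P 0.04 lb ai/acre at VE-V2) + NIS at VE-V2, V4, V8. Crop injury visually rated 0–100, 10–14 days after application.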

[4] = enzyme activity assay at 23° C. with purified enzyme; assay type: biochemical; settings: for maximum activities for all four substrates compared with the wild-type enzyme: haloxyfop, fenoxaprop, fluazifop and dichlorprop; for maximum activity as a percentage of the wild-type enzyme's activity, Haloxyfop: purified enzyme; for maximum activity as a percentage of the wild-type enzyme's activity, Haloxyfop / maximum activity as a percentage of the wild-type enzyme's activity, Dichlorprop / maximum activity as a percentage of the wild-type enzyme's activity, Fenoxaprop / maximum activity as a percentage of the wild-type enzyme's activity, Fluazifop: wild-type set at 100%
Protocol: The enzyme activity of MON-HT protein variants with haloxyfop, fenoxaprop, fluazifop, and dichlorprop as substrates was determined using the enzyme activity assay conducted at 23° C. with purified enzyme. The activity was recorded as the maximum activity as a percentage of the wild-type enzyme's activity, which was set at 100%.

Molecule	average injury rating, V4 Growth Stage, 2x 2,4-D (F1 hybrid maize plants [1])	average injury rating, V8 Growth Stage, 2x 2,4-D (F1 hybrid maize plants [1])	average injury rating, V4 Growth Stage, 4x 2,4-D (F1 hybrid maize plants [1])	average injury rating, V8 Growth Stage, 4x 2,4-D (F1 hybrid maize plants [1])	average injury rating, V4 Growth Stage, 8x 2,4-D (F1 hybrid maize plants [1])	average injury rating, V8 Growth Stage, 8x 2,4-D (F1 hybrid maize plants [1])	average injury rating, V4 Growth Stage, 16x 2,4-D (F1 hybrid maize plants [1])	average injury rating, V8 Growth Stage, 16x 2,4-D (F1 hybrid maize plants [1])	average injury rating, V4 Growth Stage, 4x Quizalofop (F1 hybrid maize plants [2])	average injury rating, V8 Growth Stage, 4x Quizalofop (F1 hybrid maize plants [2])	average injury rating, V4 Growth Stage, 8x Quizalofop (F1 hybrid maize plants [2])	average injury rating, V8 Growth Stage, 8x Quizalofop (F1 hybrid maize plants [2])	average injury rating, V4 Growth Stage, 16x Quizalofop (F1 hybrid maize plants [2])	average injury rating, V8 Growth Stage, 16x Quizalofop (F1 hybrid maize plants [2])	average injury rating, V8 Growth Stage, 1x Clethodim (F1 hybrid maize plants [2])	% Injury from V4 2,4-D (F1 hybrid maize plants [3]) [%]	% Injury from V8 2,4-D (F1 hybrid maize plants [3]) [%]	% Injury from V4 Quizalofop (F1 hybrid maize plants [3]) [%]	% Injury from V8 Quizalofop (F1 hybrid maize plants [3]) [%]	maximum activity as a percentage of the wild-type enzyme's activity, Haloxyfop [4] [%]	also measured
B1	2.5	3.3	2.5	4.0	7.5	10.0	17.5	21.3	1.3	2.5	4.5	0.0	4.5	8.0	92.0	27.2	17.4	6.8	1.7	100	maximum activities for all four substrates compared with the wild-type enzyme [4]: lower than, or equal to; maximum activity as a percentage of the wild-type enzyme's activity, Dichlorprop [4]: 36%; maximum activity as a percentage of the wild-type enzyme's activity, Fenoxaprop [4]: 92%; maximum activity as a percentage of the wild-type enzyme's activity, Fluazifop [4]: 46%
B2	0.0	2.0	1.3	8.8	8.8	12.5	18.8	21.3	2.8	3.3	3.3	3.3	13.8	8.0	94.5	22.3	12.3	6.1	0	49	maximum activities for all four substrates compared with the wild-type enzyme [4]: lower than, or equal to; maximum activity as a percentage of the wild-type enzyme's activity, Dichlorprop [4]: 39%; maximum activity as a percentage of the wild-type enzyme's activity, Fenoxaprop [4]: 53%; maximum activity as a percentage of the wild-type enzyme's activity, Fluazifop [4]: 52%
B3	0.0	6.3	2.0	4.3	5.8	11.3	8.8	12.5	0.0	1.3	1.3	2.0	2.8	5.0	93.3	27	12.7	8	1.7	75	maximum activity as a percentage of the wild-type enzyme's activity, Dichlorprop [4]: 37%; maximum activity as a percentage of the wild-type enzyme's activity, Fluazifop [4]: 47%
